Experimental findings from publication PMC6158681 are described below.

The target of this assay is SpyCatcher-mi3 (Streptococcus pyogenes | Thermotoga maritima).

Substance SpyTag-MBP registered a % conjugation of 91%.
